# Data published in a protein production outcome set (Wang et al. 2014).
# Assay: label from the status in PepcDB records
row,Sequence,protein production
1,MNNIIVGMGEALWDVLPEGKKIGGAPANFAYHVSQFGFDSRVVSAVGNDELGDEIMEVFKEKQLKNQIERVDYPTGTVQVTLDDEGVPCYEIKEGVAWDNIPFTDELKRLALNTRAVCFGSLAQRNEVSRATINRFLDTMPDIDGQLKIFDINLRQDFYTKEVLRESFKRCNILKINDEELVTISRMFGYPGIDLQDKCWILLAKYNLKMLILTCGINGSYVFTPGVVSFQETPKVPVADTVGAGDSFTAAFCASILNGKSVPEAHKLAVEVSAYVCTQSGAMPELPVILKDRLL,not failed
2,MNNKITKTSIFLTISLLLITPGFSVVAVGLLTLYSSVKLIKNGLNLNKFDIIPLITLSAYFLSNLPITIIDGDTLRYLDAGIRALLCIPMYFFIKNEISKGANLDNTLCTSTILASFGALAFAFYQFFILNMPRVDGFLFSINFGYLAAALAILSFGLSFTQTRFKYYLYLSVVAATVATILTLTRGAILTLLFVFILFFIVNVRKIKFKQTLVFTLISFLLVSVSYQFSPRIQERVDFTIFEISSIASNNIHAAASSGGRLQLWYAAVEAFKHNPIWGTTYSERESLNIELFKEGKVDEWTSTVPRGHAHSQYFEAIASNGTLGILAIFAMLILPFGVFLNDYRKTGSPISQTGYLFAFGFIIFCLTEAPLQANLIGTFYGFMVAIFYAYIAAKRAKN,failed
3,MNNLFVLLIIIALSVGSNNGSKLWPKNQLHFRNSFSRNYDVLTVHCKSKDDDLGIHTVARSYEYNFKFEDSVFGRTEFFCTLMHGVGSKYSVTFTAYKAKPAFVASTGVIKIWDALDDGIYLTDEDHDFVKIYGW,failed
4,MNNLSWSDIKRSTFNAIKKGDLKLLANMIDKYPKVIDAYNSSGYSLLHVAAEQDNVEVLEYLYNNKIDVNITRKNDDGCVTPIHGAVDKNLIGNVEWLIAHGAKIDTGNGIHATPLIGAAFNGNLEMVKLLLKNGADINAFYDIGEGINKTRITPLIAAEMEGHTETCEYLCKNGARKLDAKKYELTQIKNQHDEILQYLQRYFGNVNKTLSEVIPASNVSVNLNIMRNTENDKFITIVTTGMSDCPMDDSDEAFEERFAELIIKLPKDWLIDKNNIKDVNNYWPLGWIRRIAHIPHLYDGWIGKDIIIPNGEPPQPFAPNTKLSCIMICQPDEKELHRFTTSKGNIINLYTLIPIYKEERNMALIKGCKYLRKRMEDRGIDEILNITRENVGLSADEQ,failed
5,MNNQFSQRVSDIIVYSKEEANRLRSRHIGPEHLLLGMLRDGEGKAIEILSKLNTNLAAVKQQIEARLKTEADDMLLPDAEIPLSNDAAKILKMCILEARGMKSNIADTEHVLLAILRERNNMAASVLEANDVNYVKVLEQATLQPD,failed
6,MNNRFNGTSIKQYSTTFLLLGSMASAAHVRAADEFHPNSFNSEALKQSMIAEFALAYDDVPTAIHNYTVLAIKSNSTSIKQRALDIALEYNDLKAALDIATHWVVQEPEDVPAMFYLAHIALRAHEYKLAANTLDKILNIDPNADLEQILAGIAPESKEDRENLLETLKTSKEKENPSILVMIAGLEAQNGHLQDALINTNRALRKRPKVTGFILMKANLLIGLNDIEGAQKWYAKSSKRHRDNLDIRLAEARFLIRHNESELALKKLEDIIKTWPDAEDAKFIAGLTSIDLKQYEKAEQYLVDLRYSAKYQNDAYYYLAVNAERKQHFETAKAYYRLVDGSLYVVSRRNLVSIFEKQGNLNDALRFLTQERVNYPQHASFLYQAQAEILKKTGNKKAALRLLDEAIKNISDDPELIYAEVLLLDPFSDRDKLDRTLKQLLLIEPNSPTYLNAYAYTLALQNRRLDEARQYAELALEYAPEQASILDTLGYIAFLQNDYAAAATSLGKAYTLSNNVNIGIRFAKALYMQGNLTEFSEVLQQLKEKNANDPQLKQLDALILPTVTKKS,failed
7,MNNRKKNIQYLVYSKVIYRIGDVMFDFANNTFLAGLNPASLSLVAVYQSLESVIGVLFNLFGGVIADSFKRKKIIITTNILCGTACLVLSFLTKEQWLVYAIVLTNVILAFMSAFSSPSYKAFTKEIVKKDSISQLNSLLETTSTVIKVTVPMVAIFLYKLLGIHGVLLLDGLSFLIAALLISFILPVNDEVVIKEKVTIREIFNDLKIGFKYVYSHKSIFIITVLSALVNFFLAAYNLLLPYSNQMFGEISTGLYGTFLTAEAIGGFIGAILSGFVNKELSSMRLILFLSLSGLMLMLAPPFYIMFHNAIILALSPALFSLFLSIFNIQFFSLVQKDVDNDFLGRVFGIIFTITILFMPIGTGFFSVALNPNNSFNLFIIGSCITTLSLVFRILFKKYNIR,failed
8,MNNYVKVHQPLNVDLRTQKTQTKLYTVLERFYVEDRTFESISIKDLCEQARVSRATFYRHHKEIIQVIEVQILRTMQYFSLEFDQIILTKENIQRLILRTIQKNPLLFQVIFWSRAENIFIDVVSGEILRISLLKEVSFSDSKFMPNCFARMILSLAAEIQQSNKDYTNDQLVELIQEAARFLQK,not failed
9,MNPAITPILLGLVAGITVTFGALTYIVVGRRLGRRGQGVLNALAGGVLAYLALETGHESAAYVEQFATRETLDSFLAGLMVTSIALLGTWLLLSYVERGYSTLVRAPPGLMVSLTVASALGLHNLGEGLAIAASLIEGKVSLAILFAVGFAIHNYTEGFPIAAPLAGEKKRTGLRTIIGLSLLAGLPVVPGAMVYYLGSNLPGLAIATLYTVAAASIVYAMLHINLSALSRLGGLSSPSFWSSLFLGIALAYVTESIILIAGLH,failed
10,MNPAPERTVMQHVRPLPYEADFTGFLSNTVAPRWMEALRIQRMRTCFPHFDSGAPQHLCIITETTVRYRKPVRYSDAIVGKAWLQSARYSRWIIAFSFAFEFSGLPAFEGRQAGTFIDPLEHHHHHH,failed
11,MNPENWLLLRRVVRFGDTDAAGVMHFHQLFRWCHESWEESLESYGLNPADIFPGSRKSEVTPEVALPIIHCQADFRRPIHTGDALAMELRPERLNPNSFQVHFEFRCEEQIAAHALIRHLAINAQTRHRCALPEGIDRWLEASGVGKIGSI,not failed
12,MNPFQNSFGGHIPQDVAGKQGENVIFIVYNLTDSPDTVDKVKDVCANFSAMIRSMRNRFPDMQFSCTMGFGADAWTRLFPDKGKPKELSTFSEIKGEKYTAVSTPGDLLFHIRAKQMGLCFEFASILDEKLKGAVVSVDETHGFRYMDGKAIIGFVDGTENPAVDENPYHFAVIGEEDADFAGGSYVFVQKYIHDMVAWNALPVEQQEKVIGRHKFNDVELSDEEKPGNAHNAVTNIGDDLKIVRANMPFANTSKGEYGTYFIGYASTFSTTRRMLENMFIGSPAGNTDRLLDFSTAITGTLFFVPSYDLLGELGE,not failed
13,MNPIEFWFDFSSGYAFFAAQRIEALAAELGRTVLWRPYMLGAAFSVTGARGLSSTPLKRDYAQRDWARIARQRGLTFRPPADHPHVALAATRAFYWIEAQSPDAATAFAQRVFDLYFSDRLDTASPEAVSRLGPEVGLEPEALLAGIADPALKETVRKIGEDAVARGIFGSPFFLVDDEPFWGWDRMEMMAEWIRTGGW,not failed
14,MNPITELLDATLWIGGVPILWREIIGNVFGLFSAWAGMRRIVWAWPIGIIGNALLFTVFMGGLFHTPQNLDLYGQAGRQIMFIIVSGYGWYQWSAAKRRALTPENAVAVVPRWASTKERAGIVIAAVVGTLSFAWIFQALGSWGPWADAWIFVGSILATYGMARGWTEFWLIWIAVDIVGVPLLLTAGYYPSAVLYLVYGAFVSWGFVVWLRVQKADKARALEAQESVTV,failed
15,MNPKKLAFYLWLLLVAGGITAYFLYPDEINILFLEDLSEEYYYVALIIYFLLLSARGLTMIPSTPLLLAGVLTFDPLELFIVNMAGILSSSTIVYYFSKFLGFDSYFETKHGKYVRKIRRGLTDKELPVIVGWSFFPLVPTDLIVYVGSSLKIPLLKCLLGVFVGESVLNAFYIFSTNLILKL,failed
16,MNPLDVWYNIKMNVKKQIFKGTLYAVVAGCMWGISGIFGQLFFRDYHGSPLWITSTRLTIAGIILLAMSFSRDHKRFFDVWKSKKNMPTLFLYVFGGVFSVQYFYYVAIQLSNSATATILQYTAPVFIMLYLLIFQRQVPKPKSVLFVILAMIGVFLLITDGNIKHLSISPLALVTGLLAGVAVVIYSIIPRPLLDKYGALNMTGWGMMLAGIACNIFYPVWRIDFRIEPLSIFYVLTISIVGTALAFLLLLRAFQLISPLVVSVATATEPLTSVFLSIPLFGLKLTPLELLGIVMVIVSVILLSKSEQA,failed
17,MNPLKAGDIAPKFSLPDQDGEQVNLTDFQGQRVLVYFYPKAMTPGCTVQACGLRDNMDELKKAGVDVLGISTDKPEKLSRFAEKELLNFTLLSDEDHQVCEQFGVWGEKSFMGKTYDGIHRISFLIDADGKIEHVFDDFKTSNHHDVVLNWLKEHA,not failed
